Experimental data: the supplement of paper PMC9170038

How the values were obtained:
[1] = test system: MS2 coat protein; test: apparent KD of MS2 coat protein, switch ON state; designed switch direction (-1 OFF switch, 1 ON switch): -1; higher = weaker reporter binding; settings: FMN input: 0 or 200 uM; Eterna round: R93 (includes R88 designs)
Method in brief: (§1)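 Illumina sequencing clusters served as templates for on-chip transcription of the designed RNA switches. SNAP-549-labelled MS2 coat protein was then titrated in twofold steps from 0.7 or 1.5 nM to 3 µM, allowing 0.8–1.5 h per step at first and 10–20 min per step later. The buffer held 100 mM Tris-HCl pH 7.5, 80 mM KCl and 4 mM MgCl2, without or with constant ligand. Apparent KD is the median per design of normalised cluster binding-curve fits.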

[2] = test system: MS2 coat protein; test: apparent KD of MS2 coat protein, switch OFF state (with FMN for OFF switches, without FMN for ON switches); designed switch direction (-1 OFF switch, 1 ON switch): -1; higher = weaker reporter binding; settings: FMN input: 0 or 200 uM; Eterna round: R93 (includes R88 designs)
Method in brief: as §1

Sequence | apparent KD of MS2 coat protein [1] [nM] | apparent KD of MS2 coat protein [2] [nM]
GAAAAACAUGAGGAUCACCCAUGUCAGGAUAUCGAAAAAUAAAUAAAAAUAAAAUAAACGAGAAGGGACAAAAG [Mat - Same state - Mayanna Mod - D111] | 50.2 | 61.1
AAAAAGUCAGGAUAUAUGCGAAAAAUAAAAAAAAUAAAAACAUAGAAGGGACAUGAGGAUCACCCAUGUUAAAA [Ex 4 May 17] | 44.7 | 29.3
AAAAAACAUGAGGAUCACCCAUGUGAGGAUAUGCAAAAAUAAAAUAAAAUAAUAAAAAGCAGAAGGCACAAAAA [Amethyst 76] | 20.5 | 26.4
CAGUACUGAGGAUAUACAUGAGGAUCACCCAUGUAUCCAAGCUAGGAAACUAGCAAAAGUAGAAGGCAGUACUG [Ex3: 820] | 13.2 | 65.5
AAGAAGACAGGAUAUACAUGAGGAUCACCCAUGUAAAAGAAAGAAAGGGAAAAGAAAAGUAGAAGGGUCAAGAA [Khepermaatre-setpenptah Ramesses X] | 37.6 | 51.4
AACAAGUCAGGAUAUGUUAAAGGUUACGAAAGGGAUAAAGGGCAGAAGGGACAUGAGGAUCACCCAUGUAAUAA [And All that Jazx] | 48 | 38.2
AGUGAGUCAGGAUAUUCGUGAAGAAUAAAAGAAAUAACAACGAAGAAGGGACAUGAGGAUCACCCAUGUACACA [May 57] | 33.6 | 25
AAAAAGGGAGGAUAUACAUGAGGAUCACCCAUGUGUCAGACGAAAAAGAGUCUGAAGUGUAGAAGGCCCAAAAA [65%, Moding Exclusion3-cac2, 1] | 25.9 | 40.7
AAUGGUGGAGGAUAUACAUGAGGAUCACCCAUGUAAAUCACACAUGUGGUCAAAGCAUGUAGAAGGCCACUAAA [Ex 3May 52] | 86 | 84.9
AAAUAGCAAGGAUAUACAUGAGGAUCACCCAUGUAAGGAUGAUACGUAAUAGAAGAAAGUAGAAGGUGCAAAUA [Ex 3 Tesla 6] | 42.8 | 148
AAAAAGAGAGGAUAUGCAGGAGAAAAAAAAAAAAAAAAAAAACAUGAGGAUCACCCAUGUAGAAGGCUCAAAAA [Ecls2-II] | 28.4 | 15.7
AAAAAGUGAGGAUAUACAUGAGGAUCACCCAUGUUAAAAAAAAAAAAAUAUAAAAAUAGUAGAAGGCACAAAAA [Default title] | 48.8 | 41.3
AAAUAGGCAGGAUAUACAUGAAAAUUAAAAAAAAAAAAAAAACAUGAGGAUCACCCAUGUAGAAGGGUCAAAAA [Exclusion 2 - Omei 2] | 74.2 | 80.3
AAGAAGUGAGGAUAUCGAAGACAGACGAAAAGUCUGUCAAACGAGAAGGCACAUGAGGAUCACCCAUGUGGGAG [Mat - Exaclusion 4 - Eli mod - D74] | 114 | 277
AAAGGGUCAGGAUAUGCACGAACAACAAAACAAAUAACGAUGCAGAAGGGACAUGAGGAUCACCCAUGUAUAAA [May 75] | 33.4 | 52.1
AGUCAUACAGGAUAUACAUGAGGAUCACCCAUGUUUAUCCUAAAAAAAUAAAAAACAUGUAGAAGGGUAUGACA [EX3 216: Super Stable 16] | 12.9 | 13.7
AUAAAACAUGAGGAUCACCCAUGUGAGGAUAUGCGAAACAAAGAAACAAACAAACAAAGCAGAAGGCACAAUAA [Amethyst 7] | 24.2 | 39.2
AAAAAACAUGAGGAUCACCCAUGUCAGGAUAUCAUAAAAAAAAAAAAAAAAAAAAAAGUGAGAAGGGACAAAAA [exclusion1-cac1] | 42.9 | 32.7
AAGUUGGUAGGAUAUACGUGCAAUUGGUGUGUCCGGAAAAAACAUGAGGAUCACCCAUGUAGAAGGACCAAAAA [Quonmabi] | 47.5 | 36.3
AAGAAGUGAGGAUAUCGAAGACAGACGAAAAGUCUGUCAAACGAGAAGGCACAUGAGGAUCACCCAUGUAAGAA [What have we learned so far?] | 34.8 | 43.7
GAAAGGGCAGGAUAUGCAGAGAGAAAAAAAAAAAAAAAAAAACAUGAGGAUCACCCAUGUAGAAGGGCCGAAAG [salish99-ex2-03] | 34.7 | 48.1
AACAGUACAGGAUAUACAUGAGGAUCACCCAUGUGAAAAUAAAGUGGCGUACCACGAAGUAGAAGGGUACUGGA [Ruby 58] | 21.1 | 72.5
AAGAAACUAGGAUAUACAAGGAAGAAAGAAAAGAAAAGAAAACAUGAGGAUCACCCAUGUAGAAGGAGUUAGAA [EteRNA is fun!] | 36.3 | 31.3

Sequence | apparent KD of MS2 coat protein [1] [nM] | apparent KD of MS2 coat protein [2] [nM]
AAAAAGGUAGGAUAUACGAAAAAAAAGGGUAAAAAAUAAAAACAUGAGGAUCACCCAUGUAGAAGGACCAAAAA [Mat - Exclusion 2 - Tesla mod - D41] | 30.5 | 36.7
AAGAAGGCAGGAUAUACAUGAAAGAAAGAAAAGAAAAGAAAACAUGAGGAUCACCCAUGUAGAAGGGCCAAGAA [EteRNA is fun!] | 29.8 | 109
AAAUUGUCAGGAUAUCCUAUAAUAAUAAAAUAGAGGAGAUAGGAGAAGGGACAUGAGGAUCACCCAUGUAAAAC [May 85] | 37.7 | 31.2
AACUGACAUGAGGAUCACCCAUGUCAGGAUAUGAUAUGUAAAAAAAAAAAAAUACUUAUCAGAAGGGACAUGGA [Design 42: Sub-opt BB] | 22.8 | 30
AAAAAGGUAGGAUAUACAUGAGGAUCACCCAUGUAAAAAAAUGGAGAAAAAAACAAUUGUAGAAGGGCCAAAAA [Ex3 Malc#7] | 38.8 | 61.6
AAUUAGUGAGGAUAUACGGGAGGGAGGGAGGGAGGGAGGGAGUAGAAGGCACAUGAGGAUCACCCAUGUAAUUA [The West [Loop] is Red] | 20.8 | 49.9
AACAGUACAGGAUAUACAUGAGGAUCACCCAUGUGAAAAUUAAGUGGAGAACCACAAGGUAGAAGGGUACUGGA [Mat - Exclusion 3 - Eli mod - D62] | 42.4 | 127
AGGGAACAUGAGGAUCACCCAUGUGAGGAUAUGCUAUGGAAAAUAAAAAUAAAACAUAGCAGAAGGCAUAAAAA [Denovo 10] | 52.1 | 49.5
AAAAAACAUGAGGAUCACCCAUGUGAGGAUAUGUAAAAUAAAAUAAAAAUAAAAAAAAGCAGAAGGUAUAUGAA [Amethyst 66] | 31.4 | 40.6
AAAAAAGCAGGAUAUACGUACAUGUCAAAAGACGUGAAGGGACAUGAGGAUCACCCAUGUAGAAGGGUUAAGAA [JL Stem Breaker 17] | 220 | 49.4
AAACGUUGAGGAUAUACGAAAAAGGGUAGGUCAAAUAAAACACAUGAGGAUCACCCAUGUAGAAGGCAACGAAA | 333 | 3.66
UUAGAACAUGAGGAUCACCCAUGUGAGGAUAUGCAAUACUAGCGACAAGAUCAUUAUAGCAGAAGGCACGUAGU [JR_EXc001_Sub806] | 30.1 | 40
AAUAAACAUGAGGAUCACCCAUGUGAGGAUAUACAGAUUAUAAGAAAAAAAAAAAAAAGUAGAAGGCACAUAUA [Default title] | 17.6 | 45.9
AAGAAUGCAGGAUAUACAUGAGGAUCACCCAUGUAAAAGAAAGAAAAGGGAAAGAAAAGUAGAAGGGCAAAGAA [Satre-merenamun Tausret] | 29.6 | 30.5
CUCUUGUCAGGAUAUGGAAGAAAAGAAAAGAAAGAAAAGAACCAGAAGGGACAUGAGGAUCACCCAUGUAAGAA [EteRNA is fun!] | 156 | 37.7
AAAAAACAUGAGGAUCACCCAUGUGAGGAUAUGCGAAAAUAAAAUAAAAUAAUAAAAAGCAGAAGGCACACCAA [58%, Sh'dynasty, 2] | 22 | 29
AAAAACUCAGGAUAUACAUGAGGAUCACCCAUGUAAAAAAAAAAAAAGGGAAAAAAAAGUAGAAGGGAGAAAAA [Semenre] | 25.5 | 37.2
AACAGGUUAGGAUAUGUGUAACAAAUAAAAAAAAUAUAAACACAGAAGGAACAUGAGGAUCACCCAUGUUAACA [May 28] | 24.4 | 17
AGAAAACAUGAGGAUCACCCAUGUGAGGAUAUGAAAAAGAAAAGAAAAGAAAGAAGAAUCAGAAGGCACAAGAA [Weneg] | 28.6 | 29.8
AAGAAGUCAGGAUAUGCUGAUAGUAAAUUGAGUGAUGAGUAGCAGAAGGGACAUGAGGAUCACCCAUGUAAAGA [Opal 12] | 45.4 | 32.6
AAGAACUCAGGAUAUACAAAAUAAAAGAAAAGAAAGAAAGAACAUGAGGAUCACCCAUGUAGAAGGGAGAAGAA [Sobekkare Sobekneferu] | 61.2 | 32.4
GGAAAACAUGAGGAUCACCCAUGUAAGGAUAUGCUAAAAAAGGAAAAAAACCCACCAGGCAGAAGGUACUAAAG [Janelle Amethyst 18 Mod 3 - Jieux - Exclusion 1] | 22.7 | 53.2
